Laboratory results reported in article PMC8100066, “PIM-induced phosphorylation of Notch3 promotes breast cancer tumorigenicity in a CSL-independent fashion” (The Journal of Biological Chemistry, 2021).

Biological target: T1, mouse CSL (amino acid residues 53-474), conserved and structurally ordered core domain (mouse, UniProt P31266 53-474)
T1 construct: The SMT3 tag was cut off with ubiquitin-like protease and separated by ion exchange; also called RBPJ; mCSL
Experiment: ITC; CSL in the cell at 10 μM, RAM peptides in the syringe at 100 μM; 20 °C; 50 mM sodium phosphate, 150 mM sodium chloride; triplicate, 20 injections of 14 μl
Details: both partners purified

T1 sequence (P31266 53-474): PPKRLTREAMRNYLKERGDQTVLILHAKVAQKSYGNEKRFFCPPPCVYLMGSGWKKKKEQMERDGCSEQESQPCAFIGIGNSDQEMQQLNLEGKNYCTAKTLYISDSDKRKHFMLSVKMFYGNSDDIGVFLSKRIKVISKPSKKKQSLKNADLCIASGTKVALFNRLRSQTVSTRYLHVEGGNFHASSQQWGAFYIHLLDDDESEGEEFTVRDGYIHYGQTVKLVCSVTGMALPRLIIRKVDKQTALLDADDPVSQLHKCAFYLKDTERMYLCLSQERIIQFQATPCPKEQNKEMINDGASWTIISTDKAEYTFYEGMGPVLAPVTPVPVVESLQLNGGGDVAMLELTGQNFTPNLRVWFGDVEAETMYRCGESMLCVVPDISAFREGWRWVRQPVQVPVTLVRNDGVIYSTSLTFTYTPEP

B1: human NOTCH1 RAM peptide (residues 1754-1781) (peptide)
peptide: VLLSRKRRRQHGQLWFPEGFKVSEASKK
notes: NOTCH1, human, RAM domain, residues 1754-1781; also called N1RAM; source: synthetic peptide (Peptide2.0, 95% purity)
B1 was tested, and the Kd was 22 nM.
